{"source": "patent US20120094280", "key": {"[1]": {"target": "M.SssI DNA cytosine-C5 methyltransferase (Spiroplasma sp.?) (UniProt P15840)", "sequence (P15840 whole entry)": "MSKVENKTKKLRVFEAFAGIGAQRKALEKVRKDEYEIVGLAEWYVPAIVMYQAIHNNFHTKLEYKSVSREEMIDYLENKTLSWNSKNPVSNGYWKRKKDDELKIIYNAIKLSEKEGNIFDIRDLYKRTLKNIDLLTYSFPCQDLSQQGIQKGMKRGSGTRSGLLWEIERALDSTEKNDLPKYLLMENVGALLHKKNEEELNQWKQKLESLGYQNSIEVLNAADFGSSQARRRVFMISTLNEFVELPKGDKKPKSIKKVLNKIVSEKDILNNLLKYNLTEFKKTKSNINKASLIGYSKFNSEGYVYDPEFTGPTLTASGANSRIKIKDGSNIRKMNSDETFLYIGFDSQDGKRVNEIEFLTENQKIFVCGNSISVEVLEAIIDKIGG", "settings": "formaldehyde; GCGC site resistant to R.Hin6I"}, "[2]": {"target": "T1, M.HpaII DNA cytosine-C5 methyltransferase (UniProt P15446)", "T1 sequence": "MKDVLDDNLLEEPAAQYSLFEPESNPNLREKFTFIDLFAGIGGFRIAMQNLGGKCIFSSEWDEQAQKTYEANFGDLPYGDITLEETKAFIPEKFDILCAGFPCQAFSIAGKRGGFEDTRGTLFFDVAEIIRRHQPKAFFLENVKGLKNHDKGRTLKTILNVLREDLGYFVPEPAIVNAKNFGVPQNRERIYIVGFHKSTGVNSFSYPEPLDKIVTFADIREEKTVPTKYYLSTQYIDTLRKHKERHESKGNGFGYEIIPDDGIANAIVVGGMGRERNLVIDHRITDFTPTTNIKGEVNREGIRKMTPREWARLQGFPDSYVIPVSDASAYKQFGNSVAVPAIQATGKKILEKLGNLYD", "settings": "formaldehyde; CCGG sites resistant to R.HpaII"}}}
{"substance": "pUC-618 PCR fragment (618 bp)", "values": [{"measurement": "activity", "setting": "[1]", "result": 70, "unit": "%"}, {"measurement": "activity", "setting": "[2]", "result": 70, "unit": "%"}]}
